Laboratory results reported in patent USRE46585 (LABORATOIRE FRANCAIS DU FRACTIONNEMENT ET DES …, dated 2017).

Legend:
[1] = molecular target: T1, FcRn-p3 fusion protein (human, UniProt P55899 24-297; P61769 21-119); experiment: phage ELISA pH6
T1 construct: baculovirus expressed; coated on ELISA wells; not shown: amino terminal part of bacteriophage p3 protein and CVDE protein

[2] = molecular target: T1, FcRn-p3 fusion protein; experiment: phage ELISA pH6 (est.)

Row | Binder | Ratio/Fc-H [1] [fold] | Ratio/FWT [2] [fold]
1 | T5A_51 (other, EU numbering) CPPCPAPELLGGPSVFLFPPKPKDTLMISRTPEVTCVVEDVSHEDPEVKFNWYVDGVEVHNAKTKPREEQYNSTYRVVSVLTVLHQDWLNGKEYKCKVSNKALPAPIEKTISKAKGQPREPQVYTLPPSRDELTKNQVSLTCLVKGFYPSDIVVEWESNGQPENNYKTTPPVLDSDGSLFLYSKLTVDKSRWQQGNVFSCSVMHEALHSHYTQKSLSLSPGK | 2.8 | 9
2 | T6A_93 (other, EU numbering) CPPCPAPELLGGPSVFLFPPKPKDTLMISRTPEVTCVVVDVSHEDPEVKFNWYVDGVEVHNAKTKPREEQYNSKYRVVSVLTVLHRDWLDGKEYKCKVSNKALPAPIEKTISKAKGQPREPQVYTLPPSRDELTKNQVSLTCLVKGFYPSDIAVEWESNGQPENNYKTTPPVLDSDGSFFLYSKLTVDKSRWQQGNVFSCSVMHEALHYHYTQKSLSLSPGK | 1.1 | 3.5
3 | T6A_13 (other, EU numbering) CPPCTAPELLGGPSVFLFPPKPKDTLMISRTPEVTCVVVDVSHEDPEVKFNWYVDGVEVHNAKTKPREEQYNSTYRVVSVLTVLHQDWLDGKEYKCKVSNKALPVPIEKTISKAKGQPREPQVYTLPPSRDELTKNRVSLTCLVKGFYPSDIAVEWESNGQPENNYKTTPPVLDSDGSFFLYSKLTVDKSRWQQGNVFSCSVMHEALHYHYTQKSLSLSPGK | 2.9 | 9.3
4 | T5A_52 (other, EU numbering) CPPCPAPELLGGPSVFLFPPKPKDTLMISRTPEVTCVVVDVSHEDPEVKFNWYVDGVEVHNAKTKPREEQYNSTYRVVSVLTVLHQDWLDGKEYKCKVSNKVLPVPIEKTISKAKGQPREPQVYTLPPSRDELTKNQVSLTCLVKGFYPSDIAVEWESNGQPENNYKTTPPVLDSDGSFFLYSKLTVDKSRWQQGNVFSCSVMHEALHYHYTQKSLSLSPGK | 1.9 | 5.9
5 | T6A_47 (other, EU numbering) CPPCTAPELLGGPSVFLFPPKPKDTLMISRTPEVTCVVVDVSHEDPEVKFNWYVDGVEVHNAKTKPREEQYNSTYRVVSVLTVLHQDWLNGKEYTCKVSNKALPAPIEKTISKAKGQPREPQVYTLPPSRDELTKNQVSLTCLVKGFYPSDIAVEWESNGQPENNYKTTPPVLDSDGSFFLYSKLTVDKSRWQQGNVFSCSVMHEALHYHYTQKSLSLSPGK | 2.8 | 9.1
6 | T7A_17 (other, EU numbering) CPPCPAPELLGGPSVFLFPPKPKDTLMISRTPEVTCVVEDVSHEDPEVKFNWYVDGVEVHNAKTKSREEQYNSTYRVVSVLTVLHQDWLNGKEYKCKVSNKALPAPIEKTISKAKGQPREPQVYTLPPSRDELTKNRVSLTCLVKGFYPSDIVVEWESNGQPENNYKTTPPVLDSDGSFFLYSKLTVDKSRWQQGNVFSCSVMHEALHYHYTQKSLSLSPGK | 2 | 6.3
7 | T6A_40 (other, EU numbering) CPPCAAPELLGGPSVLLFPPKPKDTLMISRTPEVTCVVEDVSHEDPEVKFNWYVDGVEVHNAKTKPREEQYNSTYRVVSVLTVLHQDWLNGKEYKCKVSNKALPAPIEKTISKAKGQPREPQVYTLPPSRDELTKNQVSLTCLVKGFYPSDIVVEWESNGQPENNYKTTPPVLDSDGSFFLYSKLTVDKSRWQQGTVFSCSVMHEALHNHYTQKSLSLSPGK | 2.8 | 9.1
8 | T5A_90 (other, EU numbering) CPPCPAPELLGGPSVFLFPPKPKDTLMISRTPEVTCVVVDVSHEDPEVKFNWYVDGVEVHNAKTKPREEQYNSTYRVVSVLTVLHQDWLDGKEYKCKVSNKALPVPIEKTISKAKGQPREPQVYTLPPSRDELTKNQVSLTCLVKGFYPSDIAVEWESNGQPENNYRTTPPVLDSDGSFFLYSKLTVDKSRWQQGNVFLCSVMHEALHYHYTQKSLSLSPGK | 1.8 | 5.7
9 | T5A_59 (other, EU numbering) CPPCPAPELLGGPSVFLFPPKPKDTLMISRTPEVTCVVVDVSHEDPEVKFNWYVDGVEVHNAKTKPREEQYNSTYRVVSVLTVLHQDWLNGKEYKCKVSNKALPAPIEKTISKAKGRPREPQVYTLPPSGDELTKNQVSLTCLVKGFYPSDIAVEWVSNGQPENNYKTTPPVLDSDGSFFLYSKLTVDKSRWQQGNVFSCSVMHEALHYHYTQKSLSLSPGK | 2.4 | 7.8

Other lines, results leading:

Row | Ratio/Fc-H [1] [fold] | Ratio/FWT [2] [fold] | Binder
10 | 1.8 | 5.6 | T8A_34 (other, EU numbering) CPPCPAPELLGGPSVFLFPPKPKDTLMISRTPEVTCVVVDVSHEDPEVKFNWYVDGVEVHNAKTKPREEQYNSTYRVVSVLAVLHQDWLDGKEYKCKVSNKALPAPIEKAISKAKGQPREPQVYTLPPSRDELTKNQVSLTCLVKGFYPSDIAVEWESNGQPENNYKTTPPVLDSDGSFFLYSKLTVDKSRWQQGNVFSCSVMHEALHYHYTQKSLSLSPGK
11 | 2.9 | 9.4 | T7A_58 (other, EU numbering) CPPCPAPELLGGPSVFLFPPKPKDTLMISRTPEVTCVVVDVSHEDPEVKFNWYVDGVEVHNAKTKPREEQYNSTYRVVSVLTVLHQDWLDGKEYKCKVSNKALPAPIEKTISKAKGQPREPQVYTLPPSRDELTKNEVSLTCLVKGFYPSDIAVEWESNGQPENNYKTTPPVLDSDGSFFLYSKLTVDKSRWQQGNVFSCSVMHEALHYHYTQKSLSLSPGK
12 | 2.5 | 8.1 | T7A_57 (other, EU numbering) CPPCTAPELLGGPSVFLFPPKPKDTLMISRTPEVTCVVVDVSHEDPEVKFNWYVDGVEVHNAKTKPREEQYNSTYRVVSVLAVLHQDWLDGKEYKCKVSNKALPVPIEKTISKAKGQPREPQVYTLPPSRDELTKNQVSLTCLVKGFYPSDIAVEWESNGQPENNYKTTPPVLDSDGSFFLYSKLTVDKSRWEQGNVFSCSVMHEALHYHYTQKSLSLSPGK
13 | 2.6 | 8.2 | T7A_46 (other, EU numbering) CPPCPAPELLGGPSVFLFPPKPKDTLMISRTPEVTCVVEDVSHEDPEVKFNWYVDGVEVHNAKTKPREEQYNSTYRVVSVLTVLHQDWLNGKEYKCKVSNKALPAPIEKTISKAKGQPREPQVYTLPPSRDELTKNQVSLTCLVKGFYPSDIVVEWESNRQPENNYKTTPPVLDSDGSFFLYSKLTVDKSRWQQGNVFSCSVMHEALHSHYTQKSLSLSPGK
14 | 3.6 | 11.6 | T7A_49 (other, EU numbering) CPPCTAPELLGGPSVFLFPPKPKDTLMISRTPEVTCVVVDVSHEDPEVKFNWYVDGVEVHNAKTKPREEQYNSTYRVVSVLTVLHQDWLDGKEYECKVSNKALPAPIEKTISKAKGQPREPQVYTLPPSRDELTKNRVSLTCLVKGFYPSDIAVEWESNGQPENNYKTTPPVLDSDGSFFLYSKLTVDKSRWQQGNVFSCSVMHEALHYHYTQKSLSLSPGK
15 | 2.8 | 8.9 | T7A_18 (other, EU numbering) CPPCPAPELLGGPSVFLFPPKPKDTLMISRTPEVTCVVEDVSHEDPEVKFNWYVDGVEVHNAKTKPREEQYNSTYRVVSVLTVLHQDWLNGKEYKCKVSNKALPAPIEKTISKAKGQPREPQVYTLPPSRDELTKNQVSLTCLVKGFYPSDIVVEWESNGRPENNYKTTPPVLDSDGSFFLYSKLTVDKSRWQQGNVFSCSVMHEALHSHYTQKSLSLSPGK
16 | 3.5 | 11.1 | T8A_24 (other, EU numbering) CPPCPAPELLGGPSVFLFPPKPKDTLMISRTPEVTCVVEDVSHEDPEVKFNWYVDGVEVHNAKTKPREEQYNSTYRVVSVLPVLHQDWLNGKEYKCKVSNKALPAPIEKTISKAKGQPREPQVYTLPPSRDELTKNQVSLTCLVKGFYPSDIVVEWESNGQPENNYKTTPPVLDSDGSFFLYSKLTVDKSRWQQGNVFSCSVMHEALHSHYTQKSLSLSPGK
17 | 2.5 | 7.9 | T8A_41 (other, EU numbering) CPPCPAPELLGGPSVFLFPPKPKDTLMISRTPEVTCVVEDVSHEDPEVKFNWYVDGVEVHNAKTKPREEQYNSTYRVVSVLTVLHQDWLNGKEYKCKVSNKALPAPIEKTISKAKGQSREPQVYTLPPSRDELTKNQVSLTCLVKGFYPSDIVVEWESNGQPENNYKTTPPVLDSDGSFFLYSKLTVDKSRWQQGNVFSCSVMHEALHSHYTQKSLSLSPGK
18 | 1.7 | 5.4 | T7A_35 (other, EU numbering) CPPCPAPELLGGPSVFLFPPKPKDTLMISRTPEVTCVVVDVSHEDPEVKFNWYVDGVEVHNAKTKPREEQYNSTYRVVSVLTVLHQDWLDGKEYKCKVSNKALPAPIEKTISKAKGQPREPQVYTLPPSRDELTKNRVSLTCLVKGFYPSDIAVEWESNGQPENNYKTTPPVLDSDGSFFLYSKLTVDKSRWQQGNVFSCSVMHEALHYHYTQKSLSLPPGK
19 | 2.3 | 7.2 | T7A_24 (other, EU numbering) CPPCPAPELLGGPSVFLFPPKPKDTLMISRTPEVTCVVEDVSHEDPEVKFNWYVDGVEVHNAKTKPREEQYNSTYRVVSVLTVLHQDWLNGKEYKCKVSNKALPAPIEKTISKAKGQPREPQVYTLPPSRDELTKNQVSLTCLVKGFYPSDIVVEWESNGQPENNYKTTPPVLDSDGSFFLYSKLTVDKSRWQQGTVFSCSVMHEALHYHYTQKSLSLSPGK
20 | 2.9 | 9.3 | T7A_87 (other, EU numbering) CPPCSAPELLGGPSVFLFPPKPKDTLMISRTPEVTCVVVDVSHEDPEVKFNWYVDGVEVHNAKTKPREEQYNSTYRVVSVLTVLHQDWLDGKEYKCKVSNKALPAPIEKTISKAKGQPREPQVYTLPPSRDELTKNRVSLTCLVKGFYPSDIAVEWESNGQPENNYKTTPPVLDSDGSFFLYSKLTVDKSRWQQGNVFSCSVMHEALHYHYTQKSLSLSPGK
21 | 3.6 | 11.6 | T7A_48 (other, EU numbering) CPPCTAPERLGGPSVFLFPPKPKDTLMISRTPEVTCVVVDVSHEDPEVKFNWYVDGVEVHNAKTKPREEQYNSTYRVVSVLTVLHQDWLDGKEYKCKVSNKALPVPIEKTISKAKGQPREPQVYTLPPSRDELTKNQVSLTCLVKGFYPSDIAVEWESNGQPENNYKTTPPVLDSDGSFFLYSKLTVDKSRWQQGNVFSCSVMHEALHYHYTQKSLSLSPGK
